Reference: patent US20250019449A1

How the values were obtained:
human CCR8 (human) [1] = molecular target: human CCR8 (human) (UniProt P51685); assay: flow cytometry on mammalian cells expressing human CCR8
human CCR8 (human) [2] = molecular target: human CCR8 (human) (UniProt P51685); assay: cell-based or functional assay

Chain of human CCR8 (human) (P51685 whole entry): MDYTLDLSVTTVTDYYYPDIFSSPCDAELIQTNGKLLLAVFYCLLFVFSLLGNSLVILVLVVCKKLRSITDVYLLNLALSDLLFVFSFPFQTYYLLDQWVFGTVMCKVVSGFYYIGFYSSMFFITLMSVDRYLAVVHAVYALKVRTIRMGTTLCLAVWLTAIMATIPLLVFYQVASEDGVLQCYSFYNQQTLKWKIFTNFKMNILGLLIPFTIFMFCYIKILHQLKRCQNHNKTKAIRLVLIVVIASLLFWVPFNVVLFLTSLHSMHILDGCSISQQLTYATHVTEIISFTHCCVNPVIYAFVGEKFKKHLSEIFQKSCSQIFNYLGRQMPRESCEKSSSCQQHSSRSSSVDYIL

Substance	MFI Fold over Background (fold over background) (human CCR8 (human) [1])	IC50 antagonism of EC80 Human CCL1 Gα15/16 Biosensor (human CCR8 (human) [2])	IC50 antagonism of EC80 Human CCL1 Gαz Biosensor (human CCR8 (human) [2])
ADI-26140: Human IgG1 isotype control (antibody)	2	–	–
CTL-33364 = Biolegend human CCR8 control IgG clone L263G8 (antibody)	268	1.62 nM	0.798 nM
MC148R = virokine from Molluscum contagiosum virus subtype 2 (MOCV) (ligand)	–	33.5 nM	13.8 nM
